# How the values were obtained:
# [1] = test system: biotin-binding dsDNA [SEQ ID NOs: 1 and 2]; experiment: Biolayer interferometry of DNA and OhrR binding on a photosensor
# Description: A binding degree between DNA and a protein on the surface of a photosensor (optical fiber) was measured using an instrument for biolayer interferometry (Blitz, Fortebio, USA).
# Binding buffer, washing buffer: TBS (Tris 20 mM, NaCl 150 mM)
# DNA binding time, OhrR binding time: 2 min
# DNA concentration: 2.5 μM
# OhrR concentration: 50 μM
# CHP concentration: 100 μM
# First, biotin-binding dsDNA [SEQ ID NOs: 1 and 2] was dissolved in a TBS buffer at the above-mentioned concentration, bound to a streptavidin-coated photosensor (optical fiber) by flowing the resulting mixture for 120 seconds, and washed with a buffer, and then the OhrR protein was associated with dsDNA binding to the photosensor by additionally flowing the protein dissolved in a TBS buffer at the above-described concentration for 120 seconds (association). After the association was completed, by additionally flowing only a buffer for 120 seconds, the dissociation process of the DNA-OhrR complex was confirmed (dissociation).
# In biolayer interferometry, when a biomaterial (DNA or OhrR) is bound to the surface of a photosensor, a change in the surface refractive index of the photosensor is necessarily accompanied (the refractive index has a positive correlation with the concentration of a biomaterial), and the principle of converting the change in refractive index to a thickness is applied. […]
# [2] = Second order reaction rate between a biothiol and the redox-regulating protein; type: biochemical
# [3] = test system: FAM-bound double strand (ds) DNA [SEQ ID NOs: 1 and 2]; experiment: OhrR and target DNA binding by polyacrylamide gel electrophoresis; conditions: dsDNA 200 nM, room temperature 30 minutes, 7% polyacrylamide gel
# Description: Fluorescent probe (FAM)-bound double strand (ds) DNA (200 nM) [SEQ ID NOs: 1 and 2] and OhrR at concentrations shown in FIG. 3 were mixed and reacted at room temperature for 30 minutes, and then a dsDNA band was detected using a fluorescence spectrometer (KIF-300, Korea Lab Tech, Korea) through electrophoresis (25 mA, 30 min) using a polyacrylamide gel (7%). It can be seen that the fluorescent band of dsDNA shifted upward from an OhrR concentration of about 1.6 μM (concentration about 8 fold higher than DNA concentration).
# [4] = biological target: DNA; experiment: DNA binding strength of OhrR
molecule,measurement,setting,value
"OhrR: redox-regulating protein, organic hydroperoxide regulator, cloned in B. subtilis strain, SEQ ID NO: 3, homodimer, 17 kD (protein, listed as Bacillus subtilis, homodimer) MENKFDHMKLENQLCFLLYASSREMTKQYKPLLDKLNITYPQYLALLLLWEHETLTVKKMGEQLYLDSGTLTPMLKRMEQQGLITRKRSEEDERSVLISLTEDGALLKEKAVDIPGTILGLSKQSGEDLKQLKSALYTLLETLHQKN",binding thickness (dissociation equilibrium of OhrR minus dsDNA binding equilibrium),"[1]; OhrR 50 μM, DNA 2.5 μM, without CHP and biothiol",about 4.3 nm
same,binding thickness,[1]; in the presence of both CHP and a biothiol,about 1 nm
same,second order reaction rate between a biothiol and the redox-regulating protein,[2],about 10^3 M^−1s^−1
same,OhrR concentration from which the fluorescent band of dsDNA shifted upward,[3],about 1.6 μM
same,Kd,[4],≤ 1 nM

# From patent US20190331690A1, “BIOTHIOL DETECTION COMPOSITION COMPRISING REDOX REGULATION PROTENIN” (INDUSTRY-UNIVERSITY COOPERATION FOUNDATION HANYANG …, priority 2016, published 2019)
